Data set [1] deals with yellow laccase Bcl1 from Botrytis cinerea strain 241 (Botrytis cinerea strain 241). Description: SEC; Superdex 200 5/150 GL analytical column, 50 mM Tris-HCl, 150 mM NaCl, pH 8; mass read against standards (apoferritin, beta-amylase, alcohol dehydrogenase, albumin) and compared with the mass by SDS-PAGE. For orientation: SEC sorts molecules by how far they enter the pores of the column.

For data set [2], the system named is CCn1c(=NN=c2sc3cc(S(=O)(=O)O)ccc3n2CC)sc2cc(S(=O)(=O)O)ccc21. The experiment in a line: purified protein. The conditions noted are these: 50 mM sodium acetate pH 5.5, 25 °C.
The subject of data set [3] is CN(C)CCCN1c2ccccc2Sc2ccccc21. The experiment in a line: purified protein. The conditions noted are these: 50 mM sodium acetate pH 5.5, 25 °C.
In data set [4] the test system is COc1cc(/C=C/C(=O)O)cc(OC)c1O. Description: purified protein. The following applies: 50 mM sodium acetate pH 5.5, 25 °C.
Another data set has as its system COc1cc(C(=O)O)cc(OC)c1O. Description: purified protein. The conditions noted are these: 50 mM sodium acetate pH 5.5, 25 °C.
Data set [5] relates to COc1cc(C=NN=Cc2cc(OC)c(O)c(OC)c2)cc(OC)c1O. Description: purified protein. The conditions noted are these: 50 mM sodium acetate pH 5.5, 25 °C.
A further data set has as its system Nc1ccc(N)cc1. Description: purified protein. The following applies: 50 mM sodium acetate pH 5.5, 25 °C.
The test system of data set [6] is O=C(O)/C=C/c1ccc(O)c(O)c1. Description: purified protein. The following applies: 50 mM sodium acetate pH 5.5, 25 °C.
Data set [7] concerns O=C(O)CCN1c2ccccc2Oc2ccccc21. The experiment in a line: purified protein. The conditions noted are these: 50 mM sodium acetate pH 5.5, 25 °C.
The next data set relates to O=C(O)c1cc(O)c(O)c(O)c1. Description: purified protein. The conditions noted are these: 50 mM sodium acetate pH 5.5, 25 °C.
The subject of data set [8] is O=c1c(O)c(-c2ccc(O)c(O)c2)oc2cc(O)cc(O)c12. The experiment in a line: purified protein. The conditions noted are these: 50 mM sodium acetate pH 5.5, 25 °C.
In data set [9] the test system is O=c1c(O)c(-c2ccc(O)c(O)c2)oc2cc(O)ccc12. Description: purified protein. The conditions noted are these: 50 mM sodium acetate pH 5.5, 25 °C.
Data set [10] relates to O=c1c(O)c(-c2ccc(O)cc2)oc2cc(O)cc(O)c12. The experiment in a line: purified protein. The following applies: 50 mM sodium acetate pH 5.5, 25 °C.
The subject of a further data set is OCCN1c2ccccc2Oc2ccccc21. Description: purified protein. The following applies: 50 mM sodium acetate pH 5.5, 25 °C.
The next data set concerns Oc1ccc(O)cc1. Description: purified protein. The conditions noted are these: 50 mM sodium acetate pH 5.5, 25 °C.
The next data set concerns Oc1ccccc1O. Description: purified protein. The conditions noted are these: 50 mM sodium acetate pH 5.5, 25 °C.

Usually stoichiometry N stands for the number of molecules, sites or subunits per partner or assembly. On to “yellow laccase Bcl1 from Botrytis cinerea strain 241 (enzyme)”, for which the stoichiometry N in data set [1] turned out to be 2.
For orientation: Km means the concentration of substrate that gives half-maximal velocity. The kcat is the number of substrate molecules converted per active site and unit of time at saturation. Usually kcat/Km stands for the second-order rate constant that governs catalysis at low substrate concentration. For Bcl1 laccase (Botrytis cinerea), the Km in data set [2] was 13.8 ± 0.2 µM; in [3] it was 60.0 ± 10 µM; in [4], 60.0 ± 10 µM; in the data set on COc1cc(C(=O)O)cc(OC)c1O, 74.0 ± 12 µM; in data set [5], 0.7 ± 0.1 µM; in the data set with Nc1ccc(N)cc1 it was 150.0 ± 20 µM. Moreover, the Michaelis constant (Km) was 15.0 ± 1 µM in [6]; 6.0 ± 0.8 µM in data set [7]; 27.0 ± 8 µM in the data set with O=C(O)c1cc(O)c(O)c(O)c1; 3.7 ± 0.8 µM in data set [8]; 1.5 ± 0.1 µM in data set [9]; 8.6 ± 0.1 µM in [10]. The figures for the Km in the data set with OCCN1c2ccccc2Oc2ccccc21 and in the data set on Oc1ccccc1O were 40.0 ± 7 µM and 70.0 ± 4 µM, respectively. Further, the kcat was 29 ± 1 s⁻¹ in [2]; 7.1 ± 0.3 s⁻¹ in data set [3]; 100 ± 10 s⁻¹ in [4]; 3.4 ± 0.5 s⁻¹ with COc1cc(C(=O)O)cc(OC)c1O; 30 ± 2 s⁻¹ in data set [5]; 15 ± 1 s⁻¹ in the data set on Nc1ccc(N)cc1. The kcat in data set [6] is 13 ± 1 s⁻¹; in data set [7], 33 ± 1 s⁻¹; with O=C(O)c1cc(O)c(O)c(O)c1, 20 ± 3 s⁻¹; in data set [8] it was 6.7 ± 0.4 s⁻¹; in data set [9] it was 7.8 ± 0.3 s⁻¹; in the data set with OCCN1c2ccccc2Oc2ccccc21, 25 ± 2 s⁻¹. The figures for the kcat in the data set with Oc1ccc(O)cc1 and in the data set with Oc1ccccc1O were 21.4 ± 0.3 s⁻¹ and 28 ± 1 s⁻¹, respectively. In addition, the kcat/Km in data set [2] is 2.1e+06 ± 100000 M⁻¹ s⁻¹; with COc1cc(C(=O)O)cc(OC)c1O, 46000 ± 5000 M⁻¹ s⁻¹; in data set [5] it was 4.3e+07 ± 7e+06 M⁻¹ s⁻¹; in the data set with Nc1ccc(N)cc1, 100000 ± 2000 M⁻¹ s⁻¹; in [6], 870000 ± 200000 M⁻¹ s⁻¹; in [7], 5.5e+06 ± 800000 M⁻¹ s⁻¹. In addition, the catalytic efficiency (kcat/Km) in the data set with O=C(O)c1cc(O)c(O)c(O)c1 was found to be 740000 ± 200000 M⁻¹ s⁻¹; in data set [8], 1.8e+06 ± 300000 M⁻¹ s⁻¹; in data set [9], 5.2e+06 ± 900000 M⁻¹ s⁻¹; in [10], 2e+06 ± 400000 M⁻¹ s⁻¹; in the data set on OCCN1c2ccccc2Oc2ccccc21, 630000 ± 30000 M⁻¹ s⁻¹; with Oc1ccc(O)cc1 it was 97000 ± 2000 M⁻¹ s⁻¹. Besides, the kcat/Km in the data set on Oc1ccccc1O amounted to 400000 ± 20000 M⁻¹ s⁻¹.

These data come from publication PMC7922139, “Characterization of a Yellow Laccase from Botrytis cinerea 241” (Journal of Fungi, 2021).
